How the values were obtained:
Test in all cases: quantitative Coomassie blue staining of the co-purified complex; KIF5-mScarlet-StrepII and His-FLAG-KLC1 co-expressed in Sf9, purified on Streptactin XT and by SEC
Settings in all cases: partners not purified
[1] = biological target: T1, full-length human KIF5C-mScarlet-StrepII (human, UniProt O60282 1-957)
T1 construct: kinesin heavy chain KIF5C, human, cDNA BC110287, full length; 2x Prescission protease sites lie between KIF5C and mScarlet; also called KHC; source: Sf9 (baculovirus), purified (Streptactin XT, SEC); also co-expressed with KLC1 and co-purified; not shown: mScarlet, C-terminal, kept
T1 sequence (looked up): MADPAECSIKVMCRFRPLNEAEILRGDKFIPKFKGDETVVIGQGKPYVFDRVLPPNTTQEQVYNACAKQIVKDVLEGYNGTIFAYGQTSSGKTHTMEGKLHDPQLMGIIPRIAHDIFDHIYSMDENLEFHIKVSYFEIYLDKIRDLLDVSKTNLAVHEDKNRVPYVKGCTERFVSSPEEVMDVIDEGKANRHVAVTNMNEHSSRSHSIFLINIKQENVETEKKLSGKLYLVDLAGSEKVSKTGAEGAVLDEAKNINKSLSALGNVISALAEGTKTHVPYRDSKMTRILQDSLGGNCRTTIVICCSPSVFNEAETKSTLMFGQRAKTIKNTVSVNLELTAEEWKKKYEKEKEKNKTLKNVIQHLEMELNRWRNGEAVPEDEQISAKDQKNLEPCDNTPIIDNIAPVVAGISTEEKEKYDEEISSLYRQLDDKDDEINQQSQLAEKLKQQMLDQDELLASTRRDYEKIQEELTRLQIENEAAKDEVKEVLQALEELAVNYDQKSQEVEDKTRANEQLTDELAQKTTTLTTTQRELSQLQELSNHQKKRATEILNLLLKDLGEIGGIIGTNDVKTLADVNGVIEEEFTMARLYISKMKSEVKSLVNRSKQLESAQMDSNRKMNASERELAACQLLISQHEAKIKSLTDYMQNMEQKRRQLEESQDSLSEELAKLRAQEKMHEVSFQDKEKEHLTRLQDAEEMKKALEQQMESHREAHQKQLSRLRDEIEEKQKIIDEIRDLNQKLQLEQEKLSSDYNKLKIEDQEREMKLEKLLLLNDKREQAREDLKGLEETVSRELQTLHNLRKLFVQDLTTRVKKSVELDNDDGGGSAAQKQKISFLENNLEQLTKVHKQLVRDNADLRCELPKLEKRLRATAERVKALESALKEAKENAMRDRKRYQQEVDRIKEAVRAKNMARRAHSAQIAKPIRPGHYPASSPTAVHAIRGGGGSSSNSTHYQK

[2] = biological target: T2, full-length human KIF5A-mScarlet-StrepII (human, UniProt Q12840 1-1032)
T2 construct: kinesin heavy chain KIF5A, human, cDNA BC146670, full length; 2x Prescission protease sites lie between KIF5A and mScarlet; also called KIF5A dimer; KHC; source: Sf9 (baculovirus), purified (Streptactin XT, SEC); also co-expressed with KLC1 and co-purified; not shown: mScarlet, C-terminal, kept
T2 sequence (looked up): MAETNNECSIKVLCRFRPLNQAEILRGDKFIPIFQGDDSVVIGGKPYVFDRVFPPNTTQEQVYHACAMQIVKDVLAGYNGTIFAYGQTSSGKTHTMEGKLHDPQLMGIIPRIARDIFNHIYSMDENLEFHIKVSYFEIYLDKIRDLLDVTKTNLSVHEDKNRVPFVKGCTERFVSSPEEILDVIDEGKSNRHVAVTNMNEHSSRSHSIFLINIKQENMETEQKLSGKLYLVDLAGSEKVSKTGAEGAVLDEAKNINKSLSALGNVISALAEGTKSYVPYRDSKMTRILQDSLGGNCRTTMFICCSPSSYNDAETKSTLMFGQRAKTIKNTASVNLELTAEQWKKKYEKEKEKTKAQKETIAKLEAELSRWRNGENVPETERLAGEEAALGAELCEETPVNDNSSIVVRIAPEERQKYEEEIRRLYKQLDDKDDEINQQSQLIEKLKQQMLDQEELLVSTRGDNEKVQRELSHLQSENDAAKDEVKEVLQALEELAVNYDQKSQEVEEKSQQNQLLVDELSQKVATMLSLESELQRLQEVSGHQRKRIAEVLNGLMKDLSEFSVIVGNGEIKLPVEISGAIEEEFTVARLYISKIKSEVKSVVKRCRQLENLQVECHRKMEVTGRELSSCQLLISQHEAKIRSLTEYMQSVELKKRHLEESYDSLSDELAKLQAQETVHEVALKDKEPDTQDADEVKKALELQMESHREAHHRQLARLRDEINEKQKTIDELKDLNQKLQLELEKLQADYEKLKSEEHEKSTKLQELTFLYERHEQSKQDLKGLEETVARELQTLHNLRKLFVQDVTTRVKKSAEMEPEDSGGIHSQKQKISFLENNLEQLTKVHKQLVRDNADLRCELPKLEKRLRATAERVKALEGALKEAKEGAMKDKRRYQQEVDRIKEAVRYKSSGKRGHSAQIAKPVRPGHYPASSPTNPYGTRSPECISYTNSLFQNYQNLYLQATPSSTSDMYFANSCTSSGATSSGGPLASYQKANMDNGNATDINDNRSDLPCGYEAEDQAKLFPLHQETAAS

[3] = biological target: T3, full-length human KIF5B-mScarlet-StrepII (human, UniProt P33176 1-963)
T3 construct: kinesin heavy chain KIF5B, human, cDNA BC126281, full length (aa 1-963); 2x Prescission protease sites lie between KIF5B and mScarlet; also called KIF5B-WT; wild-type KIF5B; source: Sf9 (baculovirus), purified (Streptactin XT, SEC); also co-expressed with KLC1 and co-purified; not shown: mScarlet, C-terminal, kept
T3 sequence (looked up): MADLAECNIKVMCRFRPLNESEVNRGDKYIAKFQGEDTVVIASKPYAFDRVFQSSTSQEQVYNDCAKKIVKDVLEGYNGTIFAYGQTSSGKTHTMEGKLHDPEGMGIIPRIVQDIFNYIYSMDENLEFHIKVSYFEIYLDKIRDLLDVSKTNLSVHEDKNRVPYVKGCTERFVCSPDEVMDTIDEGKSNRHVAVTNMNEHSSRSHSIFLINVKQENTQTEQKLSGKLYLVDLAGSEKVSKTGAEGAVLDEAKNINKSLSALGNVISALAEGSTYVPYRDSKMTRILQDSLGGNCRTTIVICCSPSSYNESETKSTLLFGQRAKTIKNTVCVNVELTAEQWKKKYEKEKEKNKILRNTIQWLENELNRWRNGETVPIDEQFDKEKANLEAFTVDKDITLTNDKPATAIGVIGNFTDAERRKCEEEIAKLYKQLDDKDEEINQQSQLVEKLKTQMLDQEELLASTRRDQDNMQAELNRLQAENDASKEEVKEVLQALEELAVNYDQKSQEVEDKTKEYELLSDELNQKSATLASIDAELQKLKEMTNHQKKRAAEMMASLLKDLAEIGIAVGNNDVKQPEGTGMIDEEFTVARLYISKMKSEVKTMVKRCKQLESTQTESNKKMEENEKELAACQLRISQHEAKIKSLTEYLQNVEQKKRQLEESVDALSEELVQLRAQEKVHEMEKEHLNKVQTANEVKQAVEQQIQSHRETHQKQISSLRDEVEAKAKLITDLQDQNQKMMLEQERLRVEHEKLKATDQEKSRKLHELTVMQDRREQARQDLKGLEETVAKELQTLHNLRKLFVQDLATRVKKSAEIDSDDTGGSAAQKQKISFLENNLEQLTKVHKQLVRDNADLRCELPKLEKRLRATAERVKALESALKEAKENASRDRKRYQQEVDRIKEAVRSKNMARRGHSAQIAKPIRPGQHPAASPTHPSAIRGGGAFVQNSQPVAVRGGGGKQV

Measured: stoichiometry N

B1: 6xHis-FLAG-human KLC1 (co-expressed with KIF5) (natural protein, UniProt Q07866 1-573, looked up)
chain: MYDNMSTMVYIKEDKLEKLTQDEIISKTKQVIQGLEALKNEHNSILQSLLETLKCLKKDDESNLVEEKSNMIRKSLEMLELGLSEAQVMMALSNHLNAVESEKQKLRAQVRRLCQENQWLRDELANTQQKLQKSEQSVAQLEEEKKHLEFMNQLKKYDDDISPSEDKDTDSTKEPLDDLFPNDEDDPGQGIQQQHSSAAAAAQQGGYEIPARLRTLHNLVIQYASQGRYEVAVPLCKQALEDLEKTSGHDHPDVATMLNILALVYRDQNKYKDAANLLNDALAIREKTLGKDHPAVAATLNNLAVLYGKRGKYKEAEPLCKRALEIREKVLGKDHPDVAKQLNNLALLCQNQGKYEEVEYYYQRALEIYQTKLGPDDPNVAKTKNNLASCYLKQGKFKQAETLYKEILTRAHEREFGSVDDENKPIWMHAEEREECKGKQKDGTSFGEYGGWYKACKVDSPTVTTTLKNLGALYRRQGKFEAAETLEEAAMRSRKQGLDNVHKQRVAEVLNDPENMEKRRSRESLNVDVVKYESGPDGGEEVSMSVEWNGGVSGRASFCGKRQQQQWPGRRHR
notes: kinesin light chain 1, human, cDNA BC008881; also called kinesin light chain; source: Sf9, co-expressed with KIF5 from a multi-gene baculovirus, co-purified (Streptactin XT, SEC)
~0.8 KLC1 per KHC: all assays above
